Source: patent US20240084003A1 (SIMCERE ZAIMING PHARMACEUTICAL, published 2024)

What was measured:
[1] = target: T1, murine CD22 protein (ACROBiosystems, SI2-M52Ha) (murine, UniProt P35329 22-708); assay: ELISA, coated murine CD22, 0.001 nM Ab
T1 construct: extracellular domain; also called murine CD22-ECD; murine CD22-ECD-His
T1 sequence (looked up): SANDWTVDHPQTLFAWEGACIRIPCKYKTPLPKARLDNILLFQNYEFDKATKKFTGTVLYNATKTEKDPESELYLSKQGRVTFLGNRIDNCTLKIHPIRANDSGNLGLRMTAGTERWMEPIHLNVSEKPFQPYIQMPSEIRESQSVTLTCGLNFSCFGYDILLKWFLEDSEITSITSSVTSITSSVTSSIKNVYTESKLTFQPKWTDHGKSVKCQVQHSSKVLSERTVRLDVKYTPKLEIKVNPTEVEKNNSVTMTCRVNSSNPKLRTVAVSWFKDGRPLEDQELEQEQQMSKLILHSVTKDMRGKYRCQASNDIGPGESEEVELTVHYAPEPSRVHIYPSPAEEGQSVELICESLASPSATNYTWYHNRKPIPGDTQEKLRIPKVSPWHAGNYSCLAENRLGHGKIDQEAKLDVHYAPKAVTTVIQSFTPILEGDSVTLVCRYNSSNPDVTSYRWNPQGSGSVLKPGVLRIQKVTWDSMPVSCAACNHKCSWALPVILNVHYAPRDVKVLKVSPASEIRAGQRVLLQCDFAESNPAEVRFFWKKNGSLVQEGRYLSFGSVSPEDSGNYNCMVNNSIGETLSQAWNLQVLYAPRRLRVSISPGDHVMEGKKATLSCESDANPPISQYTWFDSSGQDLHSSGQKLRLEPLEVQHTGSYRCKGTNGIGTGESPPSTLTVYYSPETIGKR
In short: (§1)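 Direct ELISA: chimeric antibody binding to CD22 coated at 2 μg/mL, with a 37° C, 2 h antibody step and HRP/TMB detection.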

[2] = target: T1, murine CD22 protein (ACROBiosystems, …); assay: ELISA, coated murine CD22, 100 nM Ab
In short: as §1

[3] = target: T1, murine CD22 protein (ACROBiosystems, …); assay: ELISA, coated murine CD22, 0.00001 nM Ab
In short: as §1

[4] = target: T2, human CD22, full length, on CHO-K1-human CD22 2C4 cells (human, UniProt P20273 20-847); assay: FACS, CHO-K1-human CD22 2C4 cells
T2 construct: Full-length human CD22 (NCBI NP_001762.2) stably transfected into CHO-K1
T2 sequence: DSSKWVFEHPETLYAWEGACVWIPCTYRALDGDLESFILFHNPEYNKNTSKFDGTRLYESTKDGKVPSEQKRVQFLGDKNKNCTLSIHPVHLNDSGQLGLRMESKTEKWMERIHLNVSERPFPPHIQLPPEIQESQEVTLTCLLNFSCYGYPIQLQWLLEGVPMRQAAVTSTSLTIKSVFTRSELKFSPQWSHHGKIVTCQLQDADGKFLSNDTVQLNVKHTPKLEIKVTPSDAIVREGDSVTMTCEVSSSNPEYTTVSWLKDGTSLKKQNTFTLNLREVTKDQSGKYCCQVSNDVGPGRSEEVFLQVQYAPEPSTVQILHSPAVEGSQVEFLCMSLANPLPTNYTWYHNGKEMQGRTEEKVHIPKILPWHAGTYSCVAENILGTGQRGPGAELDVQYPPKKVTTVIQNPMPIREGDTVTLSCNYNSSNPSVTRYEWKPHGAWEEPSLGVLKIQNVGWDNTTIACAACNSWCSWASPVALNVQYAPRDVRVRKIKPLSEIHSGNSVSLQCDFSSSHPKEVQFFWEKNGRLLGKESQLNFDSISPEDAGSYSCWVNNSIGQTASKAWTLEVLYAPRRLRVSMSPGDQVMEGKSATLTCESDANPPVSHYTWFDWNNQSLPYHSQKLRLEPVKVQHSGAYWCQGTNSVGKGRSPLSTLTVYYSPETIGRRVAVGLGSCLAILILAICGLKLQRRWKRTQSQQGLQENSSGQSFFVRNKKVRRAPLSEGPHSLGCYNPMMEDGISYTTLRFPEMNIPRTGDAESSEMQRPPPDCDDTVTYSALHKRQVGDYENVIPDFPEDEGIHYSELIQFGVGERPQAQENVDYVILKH
Text: (§2) The required cells were scale-up cultured in a T-75 cell culture flask to the logarithmic growth phase. For the adherent cell CHO-K1, the medium was aspirated, the cells were washed 2 times with PBS buffer, and then digested with trypsin. After the digestion was terminated, the cells were washed 2 times with PBS buffer. For suspension cell Raji, the medium supernatant was directly centrifuged and discarded, and the cell pellet was washed 2 times with PBS. After counting the cells in the previous step, the cell pellet was resuspended with [PBS+2% (w/w) BSA] blocking solution to 2×10⁶ cells/ml, and added to a 96-well FACS reaction plate at 50 μl/well, and then the chimeric antibody test sample was added at 50 μl/well, and incubated on ice for 2 hours. The mixture was centrifuged and washed 3 times with PBS buffer, Alexa Flour 488-labeled secondary antibody (purchased from Invitrogen, catalog number: A-11013) was added at 50 μl/well, and incubated on ice for 1 hour. The obtained mixture was centrifuged and washed 5 times with PBS, and FACS (FACS Canto™, purchased from BD Company) was used for detection and result analysis. Data analysis was performed by software (CellQuest) to obtain the mean fluorescence density (MFI)of the cells. And then software (GraphPad Prism8) was used for analysis, data fitting, and EC50 value calculation. […] The same method was used to detect the binding of the chimeric antibodies to endogenous CD22-negative cell MoLT4 cells (purchased from ATCC, CRL-1582) and CHO-K1 cells.

[5] = target: T3, human CD22, endogenous on Raji cells (human, UniProt P20273 20-847); assay: FACS, Raji cells
T3 construct: whole, on cells; Endogenous protein of the Raji cell line
T3 sequence (looked up): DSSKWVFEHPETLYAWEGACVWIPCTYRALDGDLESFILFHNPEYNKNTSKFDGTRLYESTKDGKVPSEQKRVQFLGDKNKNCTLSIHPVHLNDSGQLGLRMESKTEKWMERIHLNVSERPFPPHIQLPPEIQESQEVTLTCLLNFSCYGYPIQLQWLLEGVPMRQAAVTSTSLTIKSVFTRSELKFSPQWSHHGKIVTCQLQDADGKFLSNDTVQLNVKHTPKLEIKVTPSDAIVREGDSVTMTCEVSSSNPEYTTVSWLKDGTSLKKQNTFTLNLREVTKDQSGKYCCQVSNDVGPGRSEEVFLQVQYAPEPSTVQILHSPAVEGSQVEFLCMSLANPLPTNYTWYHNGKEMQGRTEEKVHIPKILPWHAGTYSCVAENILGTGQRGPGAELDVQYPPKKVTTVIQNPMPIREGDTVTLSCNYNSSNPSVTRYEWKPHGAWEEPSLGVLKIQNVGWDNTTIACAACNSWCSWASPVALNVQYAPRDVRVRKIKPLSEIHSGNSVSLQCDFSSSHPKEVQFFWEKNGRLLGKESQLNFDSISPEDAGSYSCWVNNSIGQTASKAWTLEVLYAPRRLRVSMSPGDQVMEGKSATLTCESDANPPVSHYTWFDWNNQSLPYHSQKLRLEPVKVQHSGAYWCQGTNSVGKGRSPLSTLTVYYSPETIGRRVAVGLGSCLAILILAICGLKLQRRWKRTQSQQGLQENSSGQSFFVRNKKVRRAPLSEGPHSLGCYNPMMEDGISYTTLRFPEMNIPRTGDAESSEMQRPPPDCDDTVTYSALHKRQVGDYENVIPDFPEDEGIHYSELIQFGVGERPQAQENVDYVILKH
Text: as §2

[6] = target: T1, murine CD22 protein (ACROBiosystems, …); assay: ELISA, coated murine CD22, 0.01 nM Ab
In short: as §1

[7] = target: T1, murine CD22 protein (ACROBiosystems, …); assay: ELISA, coated murine CD22, 0.1 nM Ab
In short: as §1

[8] = target: T1, murine CD22 protein (ACROBiosystems, …); assay: ELISA, coated murine CD22, 0.0001 nM Ab
In short: as §1

[9] = target: T1, murine CD22 protein (ACROBiosystems, …); assay: ELISA, coated murine CD22, 10 nM Ab
In short: as §1

B1: F2.70.2 human-murine chimeric antibody (antibody, human IgG1, lambda, V domains shown)
VH: EVQLVESGGGLVKPGGSLKLSCAASGFTFSDYGMNWFRQAPEKGLEWVAYISRGSHTIYYADTVKGRFTISRDNAKNTLFLQMTSLRSNDTAMYYCVRMAGYYAMDYWGQGTSVTVSS
VL: QLVLTQSSSASFSLGASAKLTCTLSSQHSSYIIEWYQQQPLKPPKYVMELKKDGSHSTGDGIPDRFSGSSSGADRYLSISNIQPEDEAIYICGVGDTIKEQFVYVFGGGTKVTVLG
notes: Chimeric, human IgG1 / lambda
OD450 [1]: 0.06 OD450
OD450 [2]: 0.1 OD450
OD450 [3]: 0.06 OD450
EC50 [4]: 0.76 nM
Maximum mean fluorescence intensity [4]: 39000 MFI
EC50 [5]: 0.35 nM
Maximum mean fluorescence intensity [5]: 16600 MFI
OD450 [6]: 0.06 OD450
OD450 [7]: 0.06 OD450
OD450 [8]: 0.06 OD450
OD450 [9]: 0.07 OD450

B2: F2.180.16 human-murine chimeric antibody (antibody, human IgG1, lambda, V domains shown)
VH: EVKLVESGGGLVLPGGSLKISCAASGFTFSDYYMYWIRQTPDKRLEWVAYISNTGYSTFYPDSVKGRFTVSRDNAKNTLYLQMSRLQSEDTAMYYCARHGILYAMDYWGQGTSVTVSS
VL: QPVLTQSSSASFSLGASAKLTCTLSSQYSTYTIGWYQQQPLKPPKYVMELKHDGSRHTGDGIPDRFSGSSSGADRYLSISNIQPEDEATYICGVGDTIKEQFMYVFGGGTKVTVLG
notes: Chimeric, human IgG1 / lambda
OD450 [1]: 0.05 OD450
OD450 [2]: 0.05 OD450
OD450 [3]: 0.06 OD450
EC50 [4]: 1.63 nM
Maximum mean fluorescence intensity [4]: 34400 MFI
EC50 [5]: 0.88 nM
Maximum mean fluorescence intensity [5]: 15700 MFI
OD450 [6]: 0.05 OD450
OD450 [7]: 0.05 OD450
OD450 [8]: 0.07 OD450
OD450 [9]: 0.06 OD450

B3: F2.173.9 human-murine chimeric antibody (antibody, human IgG1, lambda, V domains shown)
VH: EVQLVESGGDLVKPGESLKLSCEASGFTFSNYAMSWVRQTPDRRLEWVATISSIGSFTYYSDSVKGRFTISRDNVKSTLHLQMNNLKSGDTAIYFCARLGVYFDSWGQGTTLTVSS
VL: QLVLTQSSSASFSLGASAKLTCTLSSQHSTYTIEWYQQQPHKPPKFVMEIKKDGSHYTGDGIPDRFSGSSSGADRYLSISNIQPEDETIYICGVSDMIKDQFVYVFGGGTKVTVLG
notes: Chimeric, human IgG1 / lambda
OD450 [1]: 0.05 OD450
OD450 [2]: 0.09 OD450
OD450 [3]: 0.06 OD450
EC50 [4]: 1.23 nM
Maximum mean fluorescence intensity [4]: 40300 MFI
EC50 [5]: 0.84 nM
Maximum mean fluorescence intensity [5]: 18900 MFI
OD450 [6]: 0.05 OD450
OD450 [7]: 0.05 OD450
OD450 [8]: 0.05 OD450
OD450 [9]: 0.06 OD450
